From the supplement of paper PMC11246515
± gives the standard deviation of the averaged measurements.

Assay: total protein half-life in vivo (active degradation + dilution); higher = more stable protein
[1] = E. coli NCM3722 delta-clpP delta-lon delta-hslV, growth: N-lim chemostat, doubling time 6 h
[2] = E. coli NCM3722 delta-clpP, growth: N-lim chemostat, doubling time 6 h
[3] = E. coli NCM3722 delta-hslV, growth: N-lim chemostat, doubling time 6 h
[4] = E. coli NCM3722 delta-lon, growth: N-lim chemostat, doubling time 6 h
[5] = E. coli NCM3722 delta-smpB, growth: N-lim chemostat, doubling time 6 h
[6] = wild type E. coli NCM3722, growth: C-lim chemostat, doubling time 3 h
[7] = wild type E. coli NCM3722, growth: C-lim chemostat, doubling time 6 h
[8] = wild type E. coli NCM3722, growth: C-lim chemostat, doubling time 12 h
[9] = wild type E. coli NCM3722, growth: N-lim chemostat, doubling time 6 h
[10] = wild type E. coli NCM3722, growth: N-lim chemostat, doubling time 12 h
[11] = wild type E. coli NCM3722, growth: P-lim chemostat, doubling time 6 h
[12] = wild type E. coli NCM3722, growth: P-lim chemostat, doubling time 12 h

Sequence	total protein half-life in vivo [1]	total protein half-life in vivo [2]	total protein half-life in vivo [3]	total protein half-life in vivo [4]	total protein half-life in vivo [5]	total protein half-life in vivo [6]	total protein half-life in vivo [7]	total protein half-life in vivo [8]	total protein half-life in vivo [9]	total protein half-life in vivo [10]	total protein half-life in vivo [11]	total protein half-life in vivo [12]
MTQTLSQLENSGAFIERHIGPDAAQQQEMLNAVGAQSLNALTGQIVPKDIQLATPPQVGAPATEYAALAELKAIASRNKRFTSYIGMGYTAVQLPPVILRNMLENPGWYTAYTPYQPEVSQGRLEALLNFQQVTLDLTGLDMASASLLDEATAAAEAMAMAKRVSKLKNANRFFVASDVHPQTLDVVRTRAETFGFEVIVDDAQKVLDHQDVFGVLLQQVGTTGEIHDYTALISELKSRKIVVSVAADIMALVLLTAPGKQGADIVFGSAQRFGVPMGYGGPHAAFFAAKDEYKRSMPGRIIGVSKDAAGNTALRMAMQTREQHIRREKANSNICTSQVLLANIASLYAVYHGPVGLKRIANRIHRLTDILAAGLQQKGLKLRHAHYFDTLCVEVADKAGVLTRAEAAEINLRSDILNAVGITLDETTTRENVMQLFNVLLGDNHGLDIDTLDKDVAHDSRSIQPAMLRDDEILTHPVFNRYHSETEMMRYMHSLERKDLALNQAMIPLGSCTMKLNAAAEMIPITWPEFAELHPFCPPEQAEGYQQMIAQLADWLVKLTGYDAVCMQPNSGAQGEYAGLLAIRHYHESRNEGHRDICLIPASAHGTNPASAHMAGMQVVVVACDKNGNIDLTDLRAKAEQAGDNLSCIMVTYPSTHGVYEETIREVCEVVHQFGGQVYLDGANMNAQVGITSPGFIGADVSHLNLHKTFCIPHGGGGPGMGPIGVKAHLAPFVPGHSVVQIEGMLTRQGAVSAAPFGSASILPISWMYIRMMGAEGLKKASQVAILNANYIASRLQDAFPVLYTGRDGRVAHECILDIRPLKEETGISELDIAKRLIDYGFHAPTMSFPVAGTLMVEPTESESKVELDRFIDAMLAIRAEIDQVKAGVWPLEDNPLVNAPHIQSELVAEWAHPYSREVAVFPAGVADKYWPTVKRLDDVYGDRNLFCSCVPISEYQ	4.44 ± 0.46 h	3.621 ± 0.013 h	4.09 ± 0.11 h	4 ± 0.3 h	3.81 ± 0.18 h	3.022 ± 0.029 h	4.95 ± 0.14 h	8.75 ± 0.28 h	4.02 ± 0.13 h	6.79 ± 0.18 h	6.117 ± 0.035 h	11 ± 0.55 h
MSAGKLPEGWVIAPVSTVTTLIRGVTYKKEQAINYLKDDYLPLIRANNIQNGKFDTTDLVFVPKNLVKESQKISPEDIVIAMSSGSKSVVGKSAHQHLPFECSFGAFCGVLRPEKLIFSGFIAHFTKSSLYRNKISSLSAGANINNIKPASFDLINIPIPPLAEQKIIAEKLDTLLAQVDSTKARFEQIPQILKRFRQAVLGGAVNGKLTEKWRNFEPQHSVFKKLNFESILTELRNGLSSKPNESGVGHPILRISSVRAGHVDQNDIRFLECSESELNRHKLQDGDLLFTRYNGSLEFVGVCGLLKKLQHQNLLYPDKLIRARLTKDALPEYIEIFFSSPSARNAMMNCVKTTSGQKGISGKDIKSQVVLLPPVKEQAEIVRRVEQLFAYADTIEKQVNNALARVNNLTQSILAKAFRGELTAQWRAENPDLISGENSAAALLEKIKAERAASGGKKASRKKS	5.47 ± 0.81 h	5.86 ± 0.12 h	5.48 ± 0.098 h	6.44 ± 0.56 h	5.68 ± 0.34 h	3.08 ± 0.36 h	6.03 ± 0.34 h	10.9 ± 0.68 h	5.84 ± 0.44 h	10.7 ± 0.57 h	5.46 ± 0.33 h	10.9 ± 0.15 h
MGSDAKNLMSDGNVQIVKTGEVIGATQLTEGELIVEAGGRAENTVVTGAGWLKVATGGIAKCTQYGNNGTLSVSDGAIATDIVQSEGGAISLSTLATVNGRHPEGEFSVDKGYACGLLLENGGNLRVLEGHRAEKIILDQEGGLLVNGTTSAVVVDEGGELLVYPGGEASNCEINQGGVFMLAGKASDTLLAGGTMNNLGGEDSDTIVENGSIYRLGTDGLQLYSSGKTQNLSVNVGGRAEVHAGTLENAVIQGGTVILLSPTSADENFVVEEDRAPVELTGSVALLDGASMIIGYGAELQQSTITVQQGGVLILDGSTVKGDSVTFIVGNINLNGGKLWLITDAATHVQLKVKRLRGEGAICLQTSAKEISPDFINVKGEVTGDIHVEITDASRQTLCNALKLQPDEDGIGATLQPA	4.99 ± 0.55 h	4.73 ± 0.33 h	0.86 ± 0.11 h	1.12 ± 0.029 h	0.827 ± 0.0095 h	1.15 ± 0.029 h	1.56 ± 0.18 h	2.44 ± 0.65 h	1.07 ± 0.041 h	1.32 ± 0.13 h	1.73 ± 0.34 h	3.47 ± 1.2 h
MNTFSVSRLALALAFGVTLTACSSTPPDQRPSDQTAPGTSSRPILSAKEAQNFDAQHYFASLTPGAAAWNPSPITLPAQPDFVVGPAGTQGVTHTTIQAAVDAAIIKRTNKRQYIAVMPGEYQGTVYVPAAPGGITLYGTGEKPIDVKIGLSLDGGMSPADWRHDVNPRGKYMPGKPAWYMYDSCQSKRSDSIGVLCSAVFWSQNNGLQLQNLTIENTLGDSVDAGNHPAVALRTDGDQVQINNVNILGRQNTFFVTNSGVQNRLETNRQPRTLVTNSYIEGDVDIVSGRGAVVFDNTEFRVVNSRTQQEAYVFAPATLSNIYYGFLAVNSRFNAFGDGVAQLGRSLDVDANTNGQVVIRDSAINEGFNTAKPWADAVISNRPFAGNTGSVDDNDEIQRNLNDTNYNRMWEYNNRGVGSKVVAEAKK	5.8 ± 0.063 h	7.06 ± 1.3 h	6.54 ± 0.33 h	6.89 ± 0.2 h	5.993 ± 0.019 h	3.15 ± 0.05 h	6.27 ± 0.39 h	11.6 ± 0.95 h	6.28 ± 0.13 h	14.1 ± 0.59 h	6.3 ± 0.14 h	13.7 ± 0.19 h
